Reference: publication PMC11014265
Where two headings read alike, the source gives them in different places.

Tests used:
Assay in all cases: fluorescence anisotropy
[1] = target: T1, HrpA75-758 (no APHB) (Escherichia coli, UniProt P43329 75-758)
T1 sequence: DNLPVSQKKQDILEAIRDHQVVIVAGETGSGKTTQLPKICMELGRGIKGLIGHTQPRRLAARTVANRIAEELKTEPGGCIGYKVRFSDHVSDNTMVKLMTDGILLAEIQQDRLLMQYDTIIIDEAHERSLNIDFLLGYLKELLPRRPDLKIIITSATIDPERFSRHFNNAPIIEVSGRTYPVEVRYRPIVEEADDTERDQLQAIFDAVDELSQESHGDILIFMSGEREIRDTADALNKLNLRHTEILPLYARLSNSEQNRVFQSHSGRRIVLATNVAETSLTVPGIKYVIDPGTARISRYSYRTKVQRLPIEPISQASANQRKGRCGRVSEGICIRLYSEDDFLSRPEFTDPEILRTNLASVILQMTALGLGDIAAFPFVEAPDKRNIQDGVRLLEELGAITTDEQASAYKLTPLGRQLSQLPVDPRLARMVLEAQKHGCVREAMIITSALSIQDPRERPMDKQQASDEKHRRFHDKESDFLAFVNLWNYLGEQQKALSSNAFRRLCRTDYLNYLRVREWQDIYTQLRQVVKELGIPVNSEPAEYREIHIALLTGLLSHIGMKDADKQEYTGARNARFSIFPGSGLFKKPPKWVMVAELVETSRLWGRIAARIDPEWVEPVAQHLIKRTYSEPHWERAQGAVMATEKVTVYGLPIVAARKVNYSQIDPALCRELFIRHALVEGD

[2] = target: T2, HrpA75-1300 (no APHB) (Escherichia coli, UniProt P43329 75-1300)
T2 sequence: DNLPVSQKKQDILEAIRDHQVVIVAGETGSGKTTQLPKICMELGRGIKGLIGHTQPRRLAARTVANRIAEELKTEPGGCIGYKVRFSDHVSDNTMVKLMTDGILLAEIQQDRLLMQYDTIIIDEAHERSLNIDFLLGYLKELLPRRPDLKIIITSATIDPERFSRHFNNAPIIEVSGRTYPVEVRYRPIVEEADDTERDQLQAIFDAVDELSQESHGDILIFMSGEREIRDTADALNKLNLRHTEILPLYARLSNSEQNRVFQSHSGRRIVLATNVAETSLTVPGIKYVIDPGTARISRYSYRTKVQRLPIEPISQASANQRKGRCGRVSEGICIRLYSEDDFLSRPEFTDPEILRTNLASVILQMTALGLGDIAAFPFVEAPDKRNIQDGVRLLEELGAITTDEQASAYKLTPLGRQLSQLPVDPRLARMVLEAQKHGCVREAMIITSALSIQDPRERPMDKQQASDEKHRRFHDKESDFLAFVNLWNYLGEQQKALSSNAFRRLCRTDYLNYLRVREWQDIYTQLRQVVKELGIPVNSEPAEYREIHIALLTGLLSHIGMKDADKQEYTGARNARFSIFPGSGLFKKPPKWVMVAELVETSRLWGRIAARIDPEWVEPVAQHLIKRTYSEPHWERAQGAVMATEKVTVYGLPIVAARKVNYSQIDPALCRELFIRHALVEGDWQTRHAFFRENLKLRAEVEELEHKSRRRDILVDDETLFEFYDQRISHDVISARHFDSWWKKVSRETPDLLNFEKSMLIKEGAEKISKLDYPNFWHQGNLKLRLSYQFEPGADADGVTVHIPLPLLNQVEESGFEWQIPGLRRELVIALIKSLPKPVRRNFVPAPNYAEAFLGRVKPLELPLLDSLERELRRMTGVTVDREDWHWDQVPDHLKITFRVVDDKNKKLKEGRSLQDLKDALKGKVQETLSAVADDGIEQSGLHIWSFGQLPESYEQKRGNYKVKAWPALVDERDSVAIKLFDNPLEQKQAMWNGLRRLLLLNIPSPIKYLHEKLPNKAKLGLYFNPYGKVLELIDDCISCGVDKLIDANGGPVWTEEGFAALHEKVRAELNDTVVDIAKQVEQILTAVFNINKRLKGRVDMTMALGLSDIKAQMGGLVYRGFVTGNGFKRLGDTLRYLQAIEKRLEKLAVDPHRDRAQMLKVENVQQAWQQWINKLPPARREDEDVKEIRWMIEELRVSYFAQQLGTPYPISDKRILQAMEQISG

[3] = target: T1, HrpA75-758 (no APHB); remark: listed apart in the source
[4] = target: T2, HrpA75-1300 (no APHB); remark: listed apart in the source
[5] = target: T2, HrpA75-1300 (no APHB); remark: listed apart in the source
[6] = target: T3, HrpA1-1300 E49A (Escherichia coli, UniProt P43329 1-1300, E49A)
T3 sequence: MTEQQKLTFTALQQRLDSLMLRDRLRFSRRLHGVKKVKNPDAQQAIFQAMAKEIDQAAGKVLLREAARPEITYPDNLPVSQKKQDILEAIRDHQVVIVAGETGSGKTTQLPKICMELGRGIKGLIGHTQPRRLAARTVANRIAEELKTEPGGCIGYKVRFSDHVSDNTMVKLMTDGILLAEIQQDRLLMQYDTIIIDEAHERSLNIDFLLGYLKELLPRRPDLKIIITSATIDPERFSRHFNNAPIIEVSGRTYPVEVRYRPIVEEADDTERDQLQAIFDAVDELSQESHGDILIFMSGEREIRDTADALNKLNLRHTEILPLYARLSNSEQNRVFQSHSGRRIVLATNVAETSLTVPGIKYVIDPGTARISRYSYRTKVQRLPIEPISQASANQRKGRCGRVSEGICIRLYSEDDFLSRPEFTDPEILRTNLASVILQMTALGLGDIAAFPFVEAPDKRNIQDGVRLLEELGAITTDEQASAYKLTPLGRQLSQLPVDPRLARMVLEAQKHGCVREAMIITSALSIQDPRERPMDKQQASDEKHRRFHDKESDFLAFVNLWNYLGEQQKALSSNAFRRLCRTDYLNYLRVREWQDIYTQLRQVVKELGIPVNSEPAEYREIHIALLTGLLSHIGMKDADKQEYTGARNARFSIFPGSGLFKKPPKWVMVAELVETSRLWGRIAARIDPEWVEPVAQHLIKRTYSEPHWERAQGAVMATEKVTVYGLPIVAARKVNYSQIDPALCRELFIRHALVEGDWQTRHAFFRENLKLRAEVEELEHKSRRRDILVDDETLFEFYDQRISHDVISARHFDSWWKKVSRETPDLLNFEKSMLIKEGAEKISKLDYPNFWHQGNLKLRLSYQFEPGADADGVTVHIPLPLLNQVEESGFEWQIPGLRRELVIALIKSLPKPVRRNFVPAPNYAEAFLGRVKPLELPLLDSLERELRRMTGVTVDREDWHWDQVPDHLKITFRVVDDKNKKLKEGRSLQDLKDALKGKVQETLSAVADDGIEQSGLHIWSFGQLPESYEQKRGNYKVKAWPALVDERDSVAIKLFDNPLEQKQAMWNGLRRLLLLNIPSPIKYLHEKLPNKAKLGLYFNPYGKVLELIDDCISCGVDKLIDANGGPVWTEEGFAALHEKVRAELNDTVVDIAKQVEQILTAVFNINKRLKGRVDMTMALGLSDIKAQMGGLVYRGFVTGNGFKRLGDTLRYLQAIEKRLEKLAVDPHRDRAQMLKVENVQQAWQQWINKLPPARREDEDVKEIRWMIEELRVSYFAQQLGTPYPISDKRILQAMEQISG

[7] = target: T2, HrpA75-1300 (no APHB); remark: listed apart in the source
[8] = target: T2, HrpA75-1300 (no APHB); remark: listed apart in the source
[9] = target: T2, HrpA75-1300 (no APHB); remark: listed apart in the source
[10] = target: T3, HrpA1-1300 E49A; remark: listed apart in the source
[11] = target: T4, HrpA1-1300 (full-length) (Escherichia coli, UniProt P43329 1-1300)
T4 sequence: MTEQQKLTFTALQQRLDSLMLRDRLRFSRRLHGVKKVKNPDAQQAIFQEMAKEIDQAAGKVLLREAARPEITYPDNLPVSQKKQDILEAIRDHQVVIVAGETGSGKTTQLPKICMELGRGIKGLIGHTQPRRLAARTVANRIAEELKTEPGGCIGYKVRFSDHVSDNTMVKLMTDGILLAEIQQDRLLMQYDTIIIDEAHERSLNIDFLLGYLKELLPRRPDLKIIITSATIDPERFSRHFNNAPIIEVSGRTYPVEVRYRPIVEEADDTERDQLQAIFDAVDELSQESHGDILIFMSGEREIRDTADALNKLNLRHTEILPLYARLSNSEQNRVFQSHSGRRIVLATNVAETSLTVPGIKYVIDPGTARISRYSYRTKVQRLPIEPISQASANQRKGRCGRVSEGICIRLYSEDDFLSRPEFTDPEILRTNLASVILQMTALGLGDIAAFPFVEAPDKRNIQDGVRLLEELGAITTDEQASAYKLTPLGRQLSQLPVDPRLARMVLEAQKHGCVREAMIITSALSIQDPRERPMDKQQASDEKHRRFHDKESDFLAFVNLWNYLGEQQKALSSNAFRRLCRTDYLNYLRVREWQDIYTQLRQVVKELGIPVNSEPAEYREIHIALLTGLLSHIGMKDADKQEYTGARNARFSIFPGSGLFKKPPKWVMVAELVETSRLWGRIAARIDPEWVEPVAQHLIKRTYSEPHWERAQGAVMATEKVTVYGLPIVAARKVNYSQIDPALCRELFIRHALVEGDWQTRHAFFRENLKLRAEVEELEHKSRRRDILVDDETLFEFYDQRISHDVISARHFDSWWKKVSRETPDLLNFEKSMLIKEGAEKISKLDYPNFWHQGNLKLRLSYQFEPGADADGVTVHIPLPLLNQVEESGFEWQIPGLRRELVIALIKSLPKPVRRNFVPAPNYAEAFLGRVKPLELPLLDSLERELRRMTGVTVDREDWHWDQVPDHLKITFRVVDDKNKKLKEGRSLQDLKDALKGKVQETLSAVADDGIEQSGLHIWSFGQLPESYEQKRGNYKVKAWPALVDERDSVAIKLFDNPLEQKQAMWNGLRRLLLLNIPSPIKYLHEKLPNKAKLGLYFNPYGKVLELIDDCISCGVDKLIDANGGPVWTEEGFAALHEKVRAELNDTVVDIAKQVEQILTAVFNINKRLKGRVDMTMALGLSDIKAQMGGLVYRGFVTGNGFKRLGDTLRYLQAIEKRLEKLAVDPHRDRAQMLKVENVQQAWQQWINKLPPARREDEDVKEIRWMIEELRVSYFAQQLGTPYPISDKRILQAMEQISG

Binder: UUUUUUUUUUUU (ssRNA) [R-U12]
- binding signal [1]: > 3 fold reduction
- binding signal [2]: > 2 fold reduction

Binder: GUGUGUGUGUGU (ssRNA) [R-G-rich]
- binding signal [3]: > 3 fold reduction
- binding signal [4]: > 9 fold reduction

Binder: CCCCCCCCCCCC (ssDNA) [D-C12]
- binding result [5]: no binding
- binding result [6]: binds

Binder: CCCCCCCCCCCC (ssRNA) [R-C12]
- binding signal [1]: > 3 fold reduction
- binding signal [7]: > 9 fold reduction

Binder: AAAAAAAAAAAA (ssRNA) [R-A12]
- binding signal [8]: > 3 fold reduction
- binding signal [3]: > 3 fold reduction

Binder: GTGTGTGTGTGT (ssDNA) [D-G-rich]
- binding result [9]: no binding
- binding result [10]: binds

Binder: TTTTTTTTTTTT (ssDNA) [D-T12]
- Kd [11]: 307 nM
